These are literature values, as cited in PMC5548488.

The target of the data set is CAST/ELKS (UniProt Q8K3M6).
Sequence of UniProt Q8K3M6 (Q8K3M6 whole entry): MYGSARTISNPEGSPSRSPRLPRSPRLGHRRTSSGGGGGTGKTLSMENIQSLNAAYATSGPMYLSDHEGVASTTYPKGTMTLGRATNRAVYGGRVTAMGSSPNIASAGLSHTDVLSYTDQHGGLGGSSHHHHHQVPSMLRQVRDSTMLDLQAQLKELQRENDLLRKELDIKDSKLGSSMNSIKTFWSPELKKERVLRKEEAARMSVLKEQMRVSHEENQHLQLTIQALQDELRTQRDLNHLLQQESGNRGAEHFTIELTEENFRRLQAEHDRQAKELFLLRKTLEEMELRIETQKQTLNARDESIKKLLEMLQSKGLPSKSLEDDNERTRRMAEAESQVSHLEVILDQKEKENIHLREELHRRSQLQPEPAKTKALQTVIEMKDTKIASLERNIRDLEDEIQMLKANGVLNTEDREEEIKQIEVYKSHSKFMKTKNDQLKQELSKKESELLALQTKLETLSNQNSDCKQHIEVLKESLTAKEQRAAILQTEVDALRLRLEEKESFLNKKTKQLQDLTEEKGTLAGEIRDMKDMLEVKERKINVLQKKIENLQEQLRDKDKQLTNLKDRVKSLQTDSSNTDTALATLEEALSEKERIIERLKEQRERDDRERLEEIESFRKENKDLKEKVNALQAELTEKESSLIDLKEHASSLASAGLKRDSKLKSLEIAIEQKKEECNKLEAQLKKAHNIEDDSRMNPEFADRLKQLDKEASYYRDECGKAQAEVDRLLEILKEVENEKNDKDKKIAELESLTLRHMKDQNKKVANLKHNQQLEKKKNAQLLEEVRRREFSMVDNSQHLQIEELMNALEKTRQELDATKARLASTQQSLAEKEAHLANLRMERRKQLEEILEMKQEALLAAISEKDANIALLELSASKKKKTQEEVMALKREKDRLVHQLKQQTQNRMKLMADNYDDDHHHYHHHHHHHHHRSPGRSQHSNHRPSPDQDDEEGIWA

For RIM PDZ (from UniProt Q86UR5), the Kd (in general, the constant that tells how readily two partners part at equilibrium) is 200 nM.
